Test results taken from patent EP3758732B1 (Leidos, Inc., dated 2024).

Key:
[1] = biological target: T1, soluble recombinant human PD-1 receptor (human, UniProt Q15116 25-167, limits assumed); assay: clonal phage ELISA, peptide on phage, wells coated with PD-1
T1 construct: also called human PD-1 receptors

[2] = biological target: human PD-1 on Jurkat cells (human, UniProt Q15116 25-288); assay: cell-based or functional assay
human PD-1 on Jurkat cells, sequence (Q15116 25-288): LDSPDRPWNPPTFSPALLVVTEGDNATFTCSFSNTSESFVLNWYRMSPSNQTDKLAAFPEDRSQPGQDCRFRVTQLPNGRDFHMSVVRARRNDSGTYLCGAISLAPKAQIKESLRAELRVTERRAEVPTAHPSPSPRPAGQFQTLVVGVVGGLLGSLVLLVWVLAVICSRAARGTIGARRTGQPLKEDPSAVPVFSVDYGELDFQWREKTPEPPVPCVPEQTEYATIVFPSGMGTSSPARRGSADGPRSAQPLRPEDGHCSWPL

T1 sequence (Q15116 25-167 limits assumed): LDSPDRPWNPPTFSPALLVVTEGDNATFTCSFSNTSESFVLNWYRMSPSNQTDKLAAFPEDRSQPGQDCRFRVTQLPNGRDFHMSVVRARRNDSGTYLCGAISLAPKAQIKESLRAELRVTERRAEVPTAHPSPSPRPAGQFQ

Binder	coated signal [1]	peak-fold inhibition (luciferase reporter) [2] [fold]
QTRTVPMPKIHHPPWQNVVP (Found by phage display; also called peptide QP20) [QP20]	0.851	~1.5
WNLPASFHNHHIRPHEHEWIQ (also called WQ-21; peptide WQ20) [WQ20]	0.275	~1.5
HHHQVYQVRSHWTGMHSGHD (Found by phage display; also called peptide HD20) [HD20]	0.281	~1.5
SSYHHFKMPELHFGKNTFHQ (Found by phage display; also called peptide SQ20) [SQ20]	0.284	~1.5
